Data as given in patent US20110002929A1.

Molecular target: human RANK-L (human) (UniProt O14788)
Assay: cell-based or functional assay

Chain of human RANK-L (human) (O14788 140-317 limits assumed): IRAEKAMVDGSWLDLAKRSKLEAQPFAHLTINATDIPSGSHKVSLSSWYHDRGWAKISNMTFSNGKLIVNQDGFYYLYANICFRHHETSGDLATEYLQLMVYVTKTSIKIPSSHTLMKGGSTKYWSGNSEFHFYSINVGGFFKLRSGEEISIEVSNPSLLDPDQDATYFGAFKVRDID

osteoprotegerin (from UniProt O00300 22-401) (receptor)
RANK-L induced NF-kappaB activation (luciferase reporter, HEK293T cells), IC50: 6.03 nM
